Results reported in the supplement of paper PMC12042874.
± gives the uncertainty stated by the source.

Test: amyloid nucleation score (Sup35N fusion, yeast selection) (log enrichment); library NNK3; higher = more nucleation; inactive = no reads after selection
Method in brief: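 Psi-negative yeast expressed Sup35N fused to peptides of 20 random codons. They were induced 24 hours with 100 μM copper sulfate, grown 7 days at 30°C without adenine and uracil, and their plasmid inserts from input and output were Illumina-sequenced. The nucleation score is the DiMSum log enrichment of output over input reads, centred on the mode score of non-aggregating sequences. Sequences with under 100 input reads were excluded.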

| Substance | amyloid nucleation score |
| --- | --- |
| GAIWERLDIREM | inactive |
| WCFHDGLRAYVNFCRVYATN | inactive |
| ISESKLMLTRWDGVFVTIWD | inactive |
| LFLWKTTMTPGLHRSSVVGR | inactive |
| NRSTWCW | inactive |
| TITCCVYDN | 2.13 ± 0.053 |
| HLVAVWVSWGILYRSVHCRS | inactive |
| HLLIHANF | 1.25 ± 0.14 |
| YIWTMWSSSLCVLMGAKGAA | inactive |
| CDSTSITWGHVLWFYINYWM | inactive |
| TRGSPRGRNEKSGYTSVMRG | inactive |
| RHDCIYRKV | inactive |
| CCMLC | -0.309 ± 1 |
| TWRNLILRFGCGGFSKTTFK | inactive |
| LPYQIIWRCCAMVNFDFLVL | inactive |
| INHFLFYANNRYRRHILVGC | inactive |
| CEIRSCGENFNATSRGRPGI | inactive |
| EVRPCNMLGLRNIGRGYREN | inactive |
| GYMWNRVGCLVEDDHNEGVN | inactive |
| CPYVKSHSICDDSSGLPRLK | inactive |
| MFEIIGHRRMLFIFYNMCYR | inactive |
| PSMKL | inactive |
| MLHLYQIIMRPYTLSGWWYY | inactive |

| Substance | amyloid nucleation score |
| --- | --- |
| GLVYWVQHGCWLTAIQSVLV | inactive |
| SLVGGICVRHREDVDTQKFK | inactive |
| SALPQH | inactive |
| LKAYKFMSSNQHTRTAFLGD | inactive |
| IYSVGYRSS | inactive |
| FYHNNYINANHVWRKSY | inactive |
| RLKNHSGCIILNRCVSRGRI | inactive |
| DGDIVQCSSLCKVSGFLFTS | inactive |
| RVGRSR | -0.176 ± 1.4 |
| LGYLRFVLIYQTCCQLTKSP | -0.617 ± 0.6 |
| SLVTFMLLMIKGMSGYFRTV | inactive |
| ELLVNN | inactive |
| SQVLWGTSRGLYYTDRNFTN | inactive |
| AEWFAKLLASTMGLIFERRW | inactive |
| ALSNYVFLEVTLQTWVVIEV | inactive |
| LDEFY | inactive |
| TISISR | inactive |
| FLIKSFWNMIVCEAGDCCKD | 1.75 ± 0.12 |
| TVLYLNDDIATYHRMLVFRV | inactive |
| HSVIVVCVFSYELFEFHSAV | inactive |
| CRCNWENCCMDQL | inactive |
| SIVDSVQQVSVRWAMYT | -0.433 ± 1.8 |
| VFSDGLFVMTAAVYQYT | inactive |

| Substance | amyloid nucleation score |
| --- | --- |
| RLINKYWSPNPMLRKFR | 1.09 ± 0.11 |
| LYGDL | inactive |
| TFIHRHINNTSQLPGSFMKL | inactive |
| NRTQRISWIWVLTPSDVLVS | inactive |
| CFLMCVAVVCRIRNYYWCTI | inactive |
| GYFFGTTKKCETFTCMRWQV | inactive |
| TSIIYMFNSFL | 2.9 ± 0.06 |
| NNRDDK | inactive |
| SSVSFVITGPVAFVWNQGLV | 2.56 ± 0.083 |
| ACTLLCFRIAQLEFLWVRVD | inactive |
| WLSRLVGFALSTKLGP | inactive |
| GLMESSCRMGLLNPIQTFTQ | 0.036 ± 0.98 |
| LWKVRCSSGHGEIYAYCDMA | inactive |
| CSDCDWSDFFVDVSFWIMVI | inactive |
| TRRQTGYILSTLWLAHCHFR | inactive |
| TNAFRLVLTNMKI | inactive |
| LACPWLTLIGYVQIRCNFDG | inactive |
| FHNCLGTNKNGVLLNGMVWN | inactive |
| ASLRDAPILYDASE | inactive |
| CVSRICVWPRYETTGFYAST | inactive |
| NSGYRWEKSLSWMALLGYGC | -0.788 ± 1.1 |
| HSVIPWDTISDTA | inactive |
| IGSAVIWVFFCNGSGVGDGT | 2.08 ± 0.09 |

| Substance | amyloid nucleation score |
| --- | --- |
| YGFRVCYPQASMSTVVEHSR | inactive |
| HLELDFNFSVLHTYCYFLAP | inactive |
| DLNRYSWSRKRRLCCSHCRG | inactive |
| FDYLLYQLCYVYRTYKTVRR | inactive |
| NSFMCCRSWDTN | 2.71 ± 0.069 |
| DFLLATDQVGYKDLDLGTKV | inactive |
| FILRVFMA | inactive |
| YRLCLDSCIKIYLQGWVYVY | inactive |
| WMGSVCSFRSIPCSMSTLR | inactive |
| SVSPEWYSSLLGSLCGAGFL | inactive |
| STYGRMAR | inactive |
| RLGFF | inactive |
| FNCLHIYWMM | 0.372 ± 0.42 |
| MWWGWKRFHSMRNYDAYIQM | inactive |
| TNVRALA | inactive |
| LYMYYWLSYVV | inactive |
| ICINVESIKPMRWQAMI | inactive |
| WYRLRYSQST | inactive |
| RMDLEIVLNILHSGMS | inactive |
| GVYVWFAALNNPTVEGFLNS | inactive |
| VYSEFWVHMLLLSFRVIYIL | inactive |
| DMDDHPDYHRNTND | inactive |
| NHGNSDEKTFPTMEN | inactive |

| Substance | amyloid nucleation score |
| --- | --- |
| HKILRSVGFGRILAYGLLDI | inactive |
| IGKFPDRCTFVQTKYFYVRS | 1.48 ± 0.075 |
| FLVLTNHRGARVRASCVMDR | inactive |
| YGEAAYRDRS | inactive |
| WFGKPFYTYSKSSWRMLYQL | inactive |
| IVVFYAFEVFVGEGGKTRVP | inactive |
| PTFFTSVLGFNYRVLYRIAV | inactive |
| HIPGNLYYKDTFRCAELGHW | inactive |
| SGLRSTFDNTYTLYY | inactive |
| VVGSDGMFTCSCLREVR | inactive |
| AAYAALQMSK | inactive |
| FGSFVRSMALESYLNYINAA | inactive |
| FWSSLAVQRACKCMGGFCDL | inactive |
| DIQVFLTSSLQFIAEISVGG | inactive |
| IWILRKVVLRVVWMRYLGVK | inactive |
| RRGVRPNATMSA | inactive |
| ALIKFLEFKGRSAWSMRFIA | inactive |
| DSSKWHAMYMLTKMKMTGWL | inactive |
| FSSKDRLGSHSRYYFYCATL | inactive |
| IYWLSTYRCIKSYSMST | inactive |
| YFFIPVKW | inactive |
| RLNAYMCLEMVTLSTRKHVG | 1.79 ± 0.079 |
| IYIHQDPVFKGCYWLRRGVE | inactive |

| Substance | amyloid nucleation score |
| --- | --- |
| VLVAHMRGEPGVANEWPLFQ | inactive |
| MCLSMVKISKNKLSFTGFLI | inactive |
| YRNRTVFALSGLSQGDLPEV | inactive |
| YTTKRL | inactive |
| NLDIWNLRQWSGVVYLV | 0.751 ± 0.14 |
| LHLMWMPVTCGEVALCDGQS | inactive |
| SALTIVVLFG | 0.775 ± 0.2 |
| VTKVYGDVVLEWRHDVLFGG | 0.503 ± 0.32 |
| HVTRLVFMNSRYVAKFVGRA | inactive |
| KSYSAWSTVRDSKPTVLGN | inactive |
| NRIFSVCECMVYGICECVCR | inactive |
| SRCIDGSAWASVAQRRSFSE | -0.098 ± 0.85 |
| FGGSILTSYINGRGSAGLNW | 0.797 ± 0.22 |
| LVDLLHTMYSCYLGYKSFRG | inactive |
| CSISNVFSVVNVSSYSWGLY | 0.373 ± 0.39 |
| NVRGDSRA | inactive |
| MQLSCRLGSLCSQQSNLARS | inactive |
| VRVSLDRTGYKSSCHVVSRG | inactive |
| KFSLCSVACFNK | 2.88 ± 0.052 |
| RVCSALCIRVLALFGCCSVE | 1.05 ± 0.19 |
| SAYTNANGLNVSLFLMHHAC | inactive |
| SLRPGLVLVIERNEFKS | inactive |
| TAWLSSNFVSDRHCGYGSDC | inactive |

| Substance | amyloid nucleation score |
| --- | --- |
| RRNDRYVCFAMMSRRSGVYL | inactive |
| YCDSVWNQNSTYHISL | inactive |
| RVVLTVFMFLIQSENACKLH | inactive |
| RSSVLLS | inactive |
| MHYMRFLWSGLLWASVETFV | inactive |
| FTMNQGSDVEVFLSSMF | inactive |
| NLSWVLAILCCGL | 1.39 ± 0.15 |
| SPVAYRSTWFVFRNNSHYDQ | inactive |
| FYLYLDHVKVNWSRS | 0.989 ± 0.15 |
| NKSLKLMYFSRDYFKDSRLN | inactive |
| CIAPILFPALAHQLLLAKGH | inactive |
| TRLFRDNFHFLGRSLSATYV | inactive |
| NFVGTICLCLSYYVSVNSCC | inactive |
| GWMSATVLFQLSE | inactive |
| YDRAKSQRIRAQPESTSSVL | 0.593 ± 0.19 |
| IGFAD | inactive |
| LRTAEDFETS | -0.416 ± 1.5 |
| HRSNCDYDIQYVYIFFS | 2.36 ± 0.063 |
| VYLYIWQKVSGHHYGFQMDW | inactive |
| PSFLNSMGS | inactive |
